Reference: US20220381787A1, “NOVEL LOX-1 ANTIBODY COMPOSITIONS, LOX1 NEUTRALIZATION ASSAY AND METHODS OF TREATMENT USING SAME” (The Wistar Institute of Anatomy and Biology, priority 2019, published 2022)

Legend:
[1] = biological target: T1, LOX-1 antigen present on the cell surface of 293T cells (Homo sapiens, UniProt P78380); experiment: flow cytometry on hLOX-1 plasmid transfected 293T cells; format: cell-based; conditions: 1 μg/ml antibody
T1 construct: expressed in transfected cells; host or cells: 293T cells
Protocol: (§1) FIG. 8A is a flow cytometric histogram showing fluorescent intensity of cells incubated with recombinantly expressed anti-LOX-1 (IgG1) on the plasmid hLOX-1 transfected cells. Anti-hLOX-1/DNA transfected cells were stained with 1 μg/ml of anti-Lox1 (IgG1) (6A10) antibody plus FITC-labelled goat anti-human IgG secondary antibody. […] FIG. 8B show flow cytometry analysis of PBMCs from whole blood. Flow cytometry analysis of anti-hLOX-1 binding to CD11c^+, CD14^+, CD19^+ and CD3^+ cells in PBMCs from healthy donors. Flow cytometric analyses of anti-CD3, CD4, CD14, CD19 and anti-Lox1 monoclonal antibodies were used to detect their lineage specificity.

[2] = test system: CD11c+, CD14+, CD19+ and CD3+ cells in PBMCs; experiment: flow cytometry of PBMCs from healthy donors; format: cell-based, human
Protocol: as §1

[3] = biological target: T2, recombinant human LOX-1 protein (Homo sapiens, UniProt P78380); experiment: IgG avidity test, modified ELISA with 4M urea washes; format: binding; conditions: for avidity: 4M urea ELISA; for strength of binding to hLOX-1 recombinant protein: 4M urea washes, rank order 6A10=12D9>12E4>4D6
T2 construct: The hLOX1 immunogen was cloned into pET30a Escherichia coli expression vector and produced; His tag; made in house; host or cells: Escherichia coli (pET30a)
Protocol: Anti-hLOX-1 mAbs samples were tested for anti-hLOX-1-specific binding to recombinant antigen using a modified ELISA and avidity determined by 4M urea washes against recombinant human LOX-1 protein.
Anti-LOX-1 mAbs samples were tested for anti-LOX-1-specific binding to recombinant antigen using a modified ELISA and avidity determined by 4M urea washes against recombinant human LOX-1 protein. […] Overall out of 16 clones identified, 6 were stronger binders, and 4 were high binders in rank order of strength of binding 6A 10=12D9>12E4>4D6.
Microtiter plates previously coated with recombinant Lox-1 antigens were washed 3 times with PBS plus 0.05% tween 20 (PBST). Hybridomas 1B6, 2A10, 3D8, 3E6, 4D6, 5C2, 5F5, 6A10, 8E7, 9E12, 10H11, 11A6, 12D9, 11C5, 12A10, 12E4, 14A12, and 12G6 samples were diluted as indicated and added (100 μl/well). The avidity of antibodies against hLOX-1 protein was determined by a particle disruption ELISA using 4M Urea. The binding of hLOX1 protein and incubation with mAbs were performed followed by a 5-minute incubation with urea after washing five times with 0.05% PBST. Control (urea-untreated) wells were treated with PBS during the 5-minute incubation. The anti-human IgG conjugated with horseradish peroxidase (HRP) was added with the dilution of 1/5000 in PBS for 1 hour. Afterwards, the plate is washed 5 times, and 100 μl of 3,3′5,5′-Tetramethylbenzidine (TMB) Substrate (Sigma-Aldrich, USA) is added to each well for 10 minutes before the reaction being stopped with 2M H2SO4 solution. The plate is read at 450 nm by Biotek ELISA plate reader.

[4] = biological target: T3, recombinant full length hLOX1 protein (Homo sapiens, UniProt P78380); experiment: Western blot against native and denatured full-length recombinant hLOX1; format: binding; conditions: for binding to denatured LOX-1: denatured condition; for binding to native LOX-1: native condition
T3 construct: The hLOX1 immunogen was cloned into pET30a Escherichia coli expression vector and produced; His tag; made in house; host or cells: Escherichia coli (pET30a)
Text: FIGS. 5A and 5B provide a series of gels showing the binding and specificity of anti-LOX-1 mAbs to target protein analyzed by Western blot analysis. In each figure, the first row of gels was loaded with denatured LOX-1, while the second row of gels was loaded with native LOX-1, as indicated in Example. The clone numbers of the anti-LOX-1 antibodies are listed below the gels.
Immunological reactivity of hLox-1 antibodies was characterized by Western blot analysis against native and denatured full-length recombinant proteins. Protein samples were electrophoretically separated under native or denaturing conditions on SDS-PAGE, performed using Novex gels with reagents as followed: 4-10% mini-gel, 10× Native-PAGE running buffer and 2× Native-PAGE: sample buffer. Denatured protein was heated in a heat block for 10 minutes at 57° C. Two micrograms (2 μg) of recombinant full length hLOX1 protein or non-specific POWV-Env viral protein was loaded to each well along with a protein size marker as a ladder. Gels were run at 150 V for 1 hour in a running buffer. Protein was transferred to a nitrocellulose membrane using the iBlot 2 Gel Transfer Device (Life Technologies). Membranes were blocked in Odyssey blocking buffer (Licor) for 1 hour at room temperature. Indicated hybridomas were diluted 1:250 in 0.5× Odyssey blocking buffer with 0.1% Tween-20 (BioRad) and incubated with the membranes overnight at 4° C. Membranes were washed and then incubated with the appropriate secondary antibody (goat anti-mouse IRDye680RD) for hybridoma samples for 1 hour at room temperature. After washing with PBST 5 times, membranes were imaged on the Odyssey infrared imager.

avidity [3] | strength of binding to hLOX-1 recombinant protein [3] | binding to native LOX-1 [4] | Molecule | binding to non-transfected cells [1] | binding to hLOX-1 transfected cells ([1]; FITC-labelled goat anti-human IgG secondary) | binding to CD3+ cells in PBMCs [2] | binding to immune subset cells in PBMCs ([2]; CD11c+, CD14+, CD19+ cells) | binding to denatured LOX-1 [4]
strong avidity | high binders | demonstrate binding to native LOX-1 | 6A10: mouse monoclonal anti-human LOX-1 antibody, VH SEQ ID NO: 3, VL SEQ ID NO: 5 (antibody, V domains shown, Amino acid sequence of variable region of the 6A10 heavy chain.; SIGNAL (1)..(19) signal seqeunce; (20)..(49) FR1; (50)..(54) CDR1; (55)..(68) FR2; (69)..(85) CDR2; (86)..(117) FR3; (118)..(121) CDR3; (122)..(132) FR4; Amino acid sequence of variable region of the 6A10 light chain.; SIGNAL (1)..(20) signal seqeunce; (21)..(43) FR1; (44)..(54) CDR1; (55)..(69) FR2; (70)..(76) CDR2; (77)..(108) FR3; (109)..(118) CDR3; (119)..(128) FR4) VH: MGWSWIFLFLLSGTAGVLSEVQLQQSGPELVKPGASVKISCKASGYSFTGYYMHWVKQSHVKSLEWIGRINPYNGATSYNQNFKDKASLTVDKSSSTAYMELHSLTSEDSAVYYCAPDVAYWGQGTLVTVSA VL: MRTPAQFLGILLLWFPGIKCDIKMTQSPSSMYASLGERVTITCKASQDINSYLSWFQQKPGKSPKTLIYRANRLVDGVPSRFSGSGSGQDYSLTISSLEYEDMGIYYCLQYDEFPPWTFGGGTKLEIK | – | – | – | – | not denatured LOX-1 (or binding to denatured LOX-1 at a significantly lower level)
– | – | demonstrate binding to native LOX-1 | 3D8: mouse monoclonal anti-human LOX-1 antibody, VH SEQ ID NO: 25, VL SEQ ID NO: 27 (antibody, V domains shown, Amino acid sequence of variable region of the 3D8 heavy chain.; (1)..(19) Signal; (20)..(49) FR1; (50)..(54) C DR1; (55)..(68) FR2; (69)..(85) CDR2; (86)..(117) FR3; (118)..(126) CDR3; (127)..(137) FR4; Amino acid sequence of variable region of the 3D8 light chain.; (1)..(20) signal; (21)..(43) FR1; (44)..(54) CDR1; (55)..(69) FR2; (70)..(76) CDR2; (77)..(108) FR3; (109)..(117) CDR3; (118)..(127) FR4) VH: MEWSWIFLFLLSGTAGVHSEVQLQQSGPELVKPGASVKMSCKASGYTFTSYVMHWVKQKPGQGLEWIGYINPYNDGTKYNEKFKGKATLTSDKSSSTAYMELSSLTSEDSAVYYCARGVYDGYPDYWGQGTTLTVSS VL: MVSTSQLLGLLLFWTSASRCDIVMTQSPATLSVTPGDRVSLSCRASQSISDYLHWYQQKSHESPRLLIKYASQSISGIPSRFSGSGSGSDFTLSINSVEPEDVGVYYCQNGHSFPYTFGGGTKLEIK | – | – | – | – | not denatured LOX-1 (or binding to denatured LOX-1 at a significantly lower level)

Further lines, the molecule ahead of its results:

Molecule | avidity [3] | strength of binding to hLOX-1 recombinant protein [3] | binding to native LOX-1 [4] | binding to non-transfected cells [1] | binding to hLOX-1 transfected cells ([1]; FITC-labelled goat anti-human IgG secondary) | binding to CD3+ cells in PBMCs [2] | binding to immune subset cells in PBMCs ([2]; CD11c+, CD14+, CD19+ cells) | binding to denatured LOX-1 [4]
anti-Lox1 (IgG1) (6A10): recombinant antibody, clone 6A10 sequence in IgG1 framework, expressed in Expi293F cells (antibody, V domains shown) VH: EVQLQQSGPELVKPGASVKISCKASGYSFTGYYMHWVKQSHVKSLEWIGRINPYNGATSYNQNFKDKASLTVDKSSSTAYMELHSLTSEDSAVYYCAPDVAYWGQGTLVTVSA VL: DIKMTQSPSSMYASLGERVTITCKASQDINSYLSWFQQKPGKSPKTLIYRANRLVDGVPSRFSGSGSGQDYSLTISSLEYEDMGIYYCLQYDEFPPWTFGGGTKLEIK | – | – | – | no binding above background to non-transfected cells | Specific binding to cells transfected with LOX-1 antigen | not to CD3^+ cells | binds to immune subset cells | –
12D9: mouse monoclonal anti-human LOX-1 antibody, VH SEQ ID NO: 11, VL SEQ ID NO: 13 (antibody, V domains shown, Amino acid sequence of variable region of the 12D9 heavy chain.; (1)..(19) signal; (20)..(49) FR1; (50)..(54) CDR1; (55)..(68) FR2; (86)..(117) FR3; (118)..(126) CDR3; (127)..(137) FR4; Amino acid sequence of variable region of the 12D9 light chain.; (1)..(20) signal; (21)..(43) FR1; (44)..(54) CDR1; (55)..(69) FR2; (70)..(76) CDR2; (77)..(108) FR3; (109)..(117) CDR3; (118)..(127) FR4) VH: MAWVWTLLFLMAAAQSAQAQIQLVQSGPELKKPGETVKISCKASGYTFTNYGMNWVKQTPGKGLKWMGWINTYTGEPTYTDDFKGRFAFSLETSASTASLQIINLKNEDTATYFCARGGDFYAMDYWGQGTSVTVSS VL: MESQTLVFISILLWLYGADGNIVMTQSPKSMSMSVGERVTLSCKASENVGTYVSWYQQKPEQSPKLVIFGASNRNTGVPDRFTGSGFATDFTLTISSVQAEDLGDYHCGQSSNYPYTFGGGTKLEIK | strong avidity | high binders | demonstrate binding to native LOX-1 | – | – | – | – | not denatured LOX-1 (or binding to denatured LOX-1 at a significantly lower level)
12E4: mouse monoclonal anti-human LOX-1 antibody, VH SEQ ID NO: 15, VL SEQ ID NO: 17 (antibody, V domains shown, Amino acid sequence of variable region of the 12E4 heavy chain.; (1)..(19) signal; (20)..(49) FR1; (50)..(54) CDR1; (55)..(68) FR2; (69)..(85) CDR2; (86)..(117) FR3; (118)..(125) CDR3; (126)..(136) FR4; Amino acid sequence of variable region of the 12E4 light chain.; (20)..(42) FR1; (43)..(53) CDR1; (54)..(68) FR2; (69)..(75) CDR2; (76)..(107) FR3; (108)..(116) CDR3; (117)..(126) FR4) VH: MGWSWIFLFLLSGTAGVHSEVQLQQSGPELVKPGASMKISCKASGYSFTGYTMNWVKQSHGKNLEWIGLINPYNGGTSYNQKFKGKATLTVDKSSSTAYMELLSLTSEDSAVYYCARGGFYAMDYWGQGTSVTVSS VL: MSSAQFLGLLLLCFQGTRCDIQMTQTTSSLSASLGDRVTISCSASQGISNYLNWYQQKPDGTVKLLIYYTSSLHSGVPSRFSGSGSGTDYSLTISNLEPEDIATYYCQQYSKLPYTFGGGTKLEIK | – | high binders | demonstrate binding to native LOX-1 | – | – | – | – | not denatured LOX-1 (or binding to denatured LOX-1 at a significantly lower level)
